Laboratory results published in US20220363738A1.

Molecular target: purified fragment of human Calnexin containing Amino acid 1-481 fused to human FC region (FC-CNX) (human) (UniProt P27824)
Assay: ELISA, coat CNX-Fc (figure title), antibody 1 ug/ml, HRP secondary, OD450 normalised to BSA

purified fragment of human Calnexin containing Amino acid 1-481 fused to human FC region (FC-CNX) (human), sequence (P27824 21-481 limits assumed, form in doubt): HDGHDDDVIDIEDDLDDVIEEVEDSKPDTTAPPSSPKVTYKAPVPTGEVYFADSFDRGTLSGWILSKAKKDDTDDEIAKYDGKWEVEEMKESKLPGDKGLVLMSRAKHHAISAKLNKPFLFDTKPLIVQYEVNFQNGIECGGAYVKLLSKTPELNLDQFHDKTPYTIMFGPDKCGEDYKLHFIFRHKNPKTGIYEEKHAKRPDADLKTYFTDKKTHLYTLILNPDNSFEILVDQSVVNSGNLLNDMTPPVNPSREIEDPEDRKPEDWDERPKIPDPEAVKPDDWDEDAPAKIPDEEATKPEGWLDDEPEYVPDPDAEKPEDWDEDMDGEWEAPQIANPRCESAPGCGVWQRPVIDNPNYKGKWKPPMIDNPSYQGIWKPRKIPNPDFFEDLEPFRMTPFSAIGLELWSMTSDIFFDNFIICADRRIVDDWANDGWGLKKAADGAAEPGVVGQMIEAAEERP

Substance	OD450 (Normalised to BSA)
CNX ab10286 (antibody)	4.79
CRT ab92516 (antibody)	0.9
ctrl hIgG (antibody)	0.51
